Experimental data from IntAct's records for PubMed 21577206.

B1: Transgelin-2 (Homo sapiens), P37802 (parent)
chain: MANRGPAYGLSREVQQKIEKQYDADLEQILIQWITTQCRKDVGRPQPGRENFQNWLKDGTVLCELINALYPEGQAPVKKIQASTMAFKQMEQISQFLQAAERYGINTTDIFQTVDLWEGKNMACVQRTLMNLGGLAVARDDGLFSGDPNWFPKKSKENPRNFSDNQLQEGKNVIGLQMGTNRGASQAGMTGYGMPRQIL

Variants of: B1
Conditions: with actb_human ACTB

Variant | effect of a mutation on the interaction
S83A | increasing interaction
S83D | decreasing interaction

More lines, now with the values ahead:

effect of a mutation on the interaction | Variant
decreasing interaction | S163D
increasing interaction | S163A
